Measured values reported in the DeepSol protein solubility set.

Assay: soluble on expression in E. coli; label from the status in PepcDB or PDB records

Sequence	soluble on expression in E. coli
MAHHHHHHMAATNSPTEEEVVMRYQQLRQECLAMDSRISELENELHEHQLVADTLKPLNGDRRCHRLVGGALIERTVADILPELVENIKGIEEALAQLNKMLTEKQAAMDEYARKHGVTVAQRQGQTPAGGGGANNDEGEKKPMGADSRGVLV	soluble
MGKKKFIENEDGTTEVQETESEAPKDKKEKKEYRLRTLGANIKTSKKSFKEQFFMNYEDGLKLIKKMRGKGKGGQLVQKVMPRHISLPYHMSGKAAMEEACDWIAQNTVGKYRKEYKGIVVAVGSVDLASAPRVISDQYAFHTDVAINQIVFIPKIGDQYEAKVKYVQEGLMVGVVMDMITIHIKQNDKTSEDQVAIDDKILVKYSGIRIKSSLCHLKGEYVKMIEKAEIKEEEEVEDEADEETDVKEKVKEEEDEDEDMEE	not soluble
MGGSHHHHHHGMASALETNYLKRCFGNCLAQALAEVAKVRPSDPIEYLAHWLYHYRKTAKAKEENREKKIHLQEEYDSSLKEMEMTEMLKQEEYQIQQNCEKCHKELTSETVSTKKTIFMQEDTNPLEKEALKQEFLPGTSSLIPGMPQQVPPSESAGQIDQNFKMPQEINYKEAFQHEVAHEMPPGSKSPF	not soluble
MGSDKIHHHHHHMRGCFSVTGVEDVCERLGVPCVPLDDPVEVSGEVFQKIKISRKVLEADKVVNLPKLKTHSQMVMTLGVKNTFGCVVGLEKSSWHMRAKNYDDFANLLIDIHRIVSPVLTILDGVEGMEGNGPTNGKKKHFGLVAVSKNAFALDDAVCKALGIDHVVYTVQHARKRRVVPDYEIVGTFHASIQLPSTVSTLDRLSRTFSRFFVKYPKIDTRKCVKCRLCEERCPASAIDISSQRIDYQKCIRCYVCHEVCPQDAIKLVRRLV	not soluble
MQTQARPPVPQGPRFNHPATPQQVRRPINAPLPGQTAQIQGNRGPQPPKKKKRYADKLIQPKVRELVPESQAYMDLLAFEQKLDSTITRKKIDVQEALKRPQKIKKRLRIYISHTFIAGKEPEKEGDDASVPMWELRVEGRLLDDMQHPTVGANPRPAPKRKFSSFFKSLVIELDKDIYGPDNHLVEWHRTPQTNETDGFQVKRPGDRPVKCTILLLLDYQPMKFKLHPRLAKVLGIAAETRPRIIEALWQYIKTHKLQDPQDRDTINNDLFLEQCFGVSKMRFMEIPQRLHQLLQQPDPLVLNHIIQRPDDGQDKTSACYDIDVELEDPVKQQMANFVHNQTNANDIQLLDQKIFDLVDQINEMKLRRDFFLRFSNEPSGFIKKWVVSQNSDLKTLTESSGDGESDRYATTYSTTDTDEGVSRYMYQKIQQKRAELEQSLGIRNN	not soluble
SNAMDLQLSKRLQKVANYVPKGARLLDVGSDHAYLPIFLLQMGYCDFAIAGEVVNGPYQSALKNVSEHGLTSKIDVRLANGLSAFEEADNIDTITICGMGGRLIADILNNDIDKLQHVKTLVLQPNNREDDLRKWLAANDFEIVAEDILTENDKRYEILVVKHGHMNLTAKELRFGPFLLSNNTTVFKEKWQNELNKLTFALNSIPNSKMEERAILEDKIQDIKEVLDES	soluble
MVVLKVTLLEGRPPEKKRELVRRLTEMASRLLGEPYEEVRVILYEVRRDQWAAGGVLFSDKEGT	soluble
MNVIEVEDVSFRYGNSREYSLRHINLEIRKGEFLGIIGPSGSGKSTFCLTLNGLIPHSIAGEFHGNVIVDGLNTREHSVSELSTKVGLVFQNPDSQLFNMTVLEEVAFALENLGIERDEMWRRIRWALKLVRLWDKREEFPPNLSGGEKQRLAIASVLVMKPKVLVLDEPTSQLDPLGREEVLGLIKLLNKEEKITIILVEHNTDFLLEHADRIVVFDKGRIVLEGKPEDVFENVEFLRTIGVKLPTRVKIGYELKKRGLVERAVLTRDEVVEVLKWAYLRGKS	soluble
KSTVEKSTVGQKVAIVREDTGTIAELAEKALGNMVDIVYAGSDLKEAEEAVKKEKAPAIIVIPKGFSQSLESGEKARLEIVWYLRGTGLSEAVSTGTISSLIESLKVQLASFLLNDPKKAQLLFDPLEIVQHTYLRGSLFKNHSPEAIMNVFYSQN	soluble
MGSDKIHHHHHHMKDVARDIYLSRDKIDEIKRKRFRSTLKYVYDNSPFYRRLFKESGVDIDSIKEPADIAKLPFTTKQNLRESYPLKMACVEKEKIVRIQMSGGTTGQPVIIPYTRHDVEQWKEMLLRDFYLAGITSKDVIQITPAFGLWNGGFGFHFAADAIDAFVIPIGAGNTRNQVRFMVDFGTTVLCATASYPLRIAEVAEEMGYEPAELPVQKMLLGAEPWSEEMRRQIEKTFNCKAFDIPGLTEMGGVGTVGFECPSRNGLHIWEDNYIVEIVDPETGEVLEDGEEGEIVYTSLNREAMPLIRYRSGEVSAVVSREKCECGIEHMTIKRIRGRTDDMVIYKGVKFYPSDVEQILASYGVRHYRIEVGEGIRVIFEGENGLARKVIKDIKEFLGFSPRIEVVQPGSLERFEGKAKRLFRG	not soluble
MGNICIGGPRMSQQVYSPERADTPQRNALREQTEADIEQNSESMRLQQKIDDLKPYVSNATGPMKAYGQAAMDRASGKKTYVSFAELDAEHLDAMVDVENQRNPDLNLRYFKHHKEFIQALESDGPSSFRAIYPLTKPRTGQAAKHHVMADVRLTPCEPPSIVITEPGVIVGKRNKQLHRHNQTLEDLSESGVQLSQVAIIETQAQKTPDDCVMYCLNYAIKAHKNADKFDDIHHGLQRGTFVNRINGRRVQDADHCGHF	not soluble
MGSDKIHHHHHHMKHEPLELGLKIEDAILVNEKLKDFVVYKSGKPRIDFKNKEAMKEYNIAILGHVFGLDMDFHEDALIPTPINRYLFIKNIFDEKDDIKDVLEIGTGSGIISILIAKYFECNVTATDTVSDYLKIAKDNISKNNLTSKINLIDSKGKIIFDIPELKNKKFDLIISYPPYYADNSVASKRSFGGAFASEVELIGGGAYGEVFSQKIIEEGMDHLNNGGIVAIMFPEKPFERRKFVEDKILELGLTLEKSEITTGKRIRHIIKAKKE	not soluble
PLRDVLDSNEFRDSKATLPIALGKDISGKPVIVDLAKMPHLLVAGSTGSGKSVGVNTMILSLLYRVQPEDVKFIMIDPKVVELSVYNDIPHLLTPVVTDMKKAANALRWCVDEMERRYQLLSALRVRNIEGFNEKIDEYEAMGMPVPNPIWRLGDTMDAMPPALKKLSYIVVIVDEFADLMMVAGKQIEELIARLAQKARAIGIHLILATQRPSV	not soluble
MGSDKIHHHHHHMNLAAFEAFVKVMETGSISVAADQLFITQPAVTKRIHSLEEYFGVKLFESAGRGVQATHAAHSLLPKVKSWLNELRDIHHTLSHEQTQIQGRLKIGTSHHIGLHHLPAPLKHFVQQFPQVTLDVHFVDSEQAHEQVLAGDLELAFLTLPPSGDERLNYITIWNDPLVFVAAPFHPLAQKKNLTLQDLIEYPSLLPAAQTYTAQITLAEFEKQGLKPKITMSNNPLESIRMLVSIGLGWSVLPKTLLNQDMQQLDLNVEMNRQLGMVWHPARTQSRAMQELIKMMQE	not soluble
MGSDKIHHHHHHMNPLAVELNDLLAQHNPHVLEMLSDLGKNLFFPKGILTQSAEAKEKAHKFNATIGIATENGGPMYLQCIQDKLSAFDPKDIYPYAPPAGKPELRSLWREKMLRENPSQQGKHFSNPIVTNALTHGLSIAGDMFLDKGDHLILPDMLWGNYNLTFGTCCGAVIRKYPTFTATGGYDVDAFKAELKNSAEEKGKAVVLLNFPNNPSGYTPTVAEGDALVAAIKEVAEGGCNIVAITDDAYFGLFYEDSLKESLFGKLANLHPRILAVKLDGATKEEFVWGFRTGFITFADGNSYENTPVMTALEKKAMGIIRARISNCPHPSQTFAIEALRSPNFIKQKQEKFQVLKGRALKTKEVLNSGKYDKAWDYYPFNSGYFMCLKLKTVDAEKLRVHMLDKYGVGAISIGKTDLRIAFSCIDEKDIPELFATIHQAVQDLS	not soluble
MGRVIFMGKTGCGKTTLCQALNNLEIKYKKTQAIELYDNAIDTPGEYMENRGYYTALIVTAADADIIALVYDCTSEENYIAPGFASMFCKEVIGIITKINLAKDKSEIEVAEERLNLAGVSKIFKVDTVDDVGIKELFNYLNKFLEHHHHHH	soluble
MTVAVIGAHGGIGRRLLPRLNEAGHDPIGVVRSEDQFAAIRDRGAEPRLGDLEGEVASALDGADAVVFTAGAGGSTGWDKTILVDLWGAERAVHACEEKEIDRFVMVSSRGAGDPESRQGPIKPYIVAKHVADRTLQRSSLDETILRPTRLTDAEGTGRVAAYVDTDPDAGDPIPRADVAQAVVQCLADDNTVGHAITLYGGDTPIGEALRPSGLEHHHHHH	not soluble
MFGYPGGAVLDIYDALHTVGGIDHVLVRHEQAAVHMADGLARATGDVGVVLVTSGPGATNAITGIATAYMDSIPLVILSGQVATSLIGYDAFQECDMVGISRPVVKHSFLVKQTEDIPLVLKKAFWLAASGRPGPVVVDLPKDILNPAKKMPYAWPETVSMRSYNPTTSGHKGQIKRALQTLASAKKPVVYVGGGAISAACYAPLRHIIETFNLPVVSSLMGLGAFPATHRQSLGMLGMHGTYEANMTMHNADVIFAVGVRFDDRTTNNLAKYCPNATVLHIDIDPTSISKTVNADIPVVGDARLVLEQMLELLAQDAPSQPQDDIRDWWQQIESWRARQCLKYDAESESIKPQAVIETLWRLTKGDAYVTSDVGQHQMFAALYYPFDKPRRWINSGGLGTMGFGLPAALGVKMALPKEMVVCVTGDGSIQMNIQELSTALQYELPVLVLNLNNRYLGMVKQWQDMIYSGRHSQSYMQSLPDFVRLAEAYGHVGLQINRPDELESKLSEALEHVRNNRLVFVDVTVDGSEHVYPMQIRGGGMDEMWLSKTERT	not soluble
MGSDKIHHHHHHMRVLVTGANGFVGSRLAGQLGRSDHFSLACAVRTTGTCRFGEEYSIGELGPKTDWSAALRGQDVVVHLAARAHVMDDEAPDPLVEYRRVNVDGTLNLARQAIDAGVRRFVFVSSIKVNGEQTDLGQPFTSDQITAPADAYGISKLEAERGLLALGKESGMEVVIIRPPLVYGPGVKGNFATLIKLVEKGFPLPLGAISNKRTLVSLDNLVDLIQVCIDHPAAANEVFLAGDNSDLSTSELLREIGKAVGKPARLIPVPQGFLMVAARLLGKTDVARRLFGSLQVDISKARHLLGWEPPVSVEEGLRRCFELESRS	not soluble
SMKDHTEGLSDKEQRFVDKLYTGLIQGQRACLAEAITLVESTHSRKKELAQVLLQKVLLYHREQEQSNKGKPLAFRVGLSGPPGAGKSTFIEYFGKMLTERGHKLSVLAVDPSSCTSGGSLLGDKTRMTELSRDMNAYIRPSPTRGTLGGVTRTTNEAILLCEGAGYDIILIETVGVGQSEFAVADMVDMFVLLLPPAGGDELQGIKRGIIEMADLVAVTKSDGDLIVPARRIQAEYVSALKLLRKRSQVWKPKVIRISARSGEGISEMWDKMKDFQDLMLASGELTAKRRKQQKVWMWNLIQESVLEHFRTHPTVREQIPLLEQKVLIGALSPGLAADFLLKAFKSRD	soluble
MKDSALTLKRVRIGKFSESMVEERPTLNLFEKVEFNPVPTALVDQLPTEPLVEATLLEKEAITFVDTYATSEAHDQIATFVLEQSMETEVVEKEAIETAIVAPAPDLVEEKAVLVEEVLVEPTATEAVTTEENQVSTTSVTKIKTKRSNTKKVTSETLVASKSVKTKKLITPNRVSSGNVNITLWQVDKKSTNLTKTKTDLFGKKHQFKGPQLISYKK	soluble
MPEILKVKPTRMELLKLKRRVKLAERGHKLLKEKQDALIMEFFTIYDEALSMRRELIKKIGEAFEALRLAQVEVGSVRLKEIAIGVNPNKEIEVRSRNIMGVRVPLIEVPELKRKPSERGYAFISTSSAVDVAAEKFEEVLELAIRLAEVEESLKRLGKEIEKTKRRVNALEYIIIPRMKNTIKFIEQHLDEMERENFFRLKRIKALLEARESMLEHHHHHH	not soluble
